Earlier results in PMC3437440.
pKd: −log10 of the molar value.

Molecular target: IgG1 Fc Fc (Homo sapiens) [IgG part: P01857]

Chain of FcγRIIIa (Val158 variant) (P08637 17-254, change not shown): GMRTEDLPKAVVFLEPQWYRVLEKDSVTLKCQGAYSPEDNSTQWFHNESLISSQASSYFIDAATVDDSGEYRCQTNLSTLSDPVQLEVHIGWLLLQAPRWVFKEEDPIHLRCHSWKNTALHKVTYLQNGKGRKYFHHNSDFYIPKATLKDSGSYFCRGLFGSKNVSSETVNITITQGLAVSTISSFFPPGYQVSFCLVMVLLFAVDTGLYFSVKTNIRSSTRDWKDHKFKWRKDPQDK

Substance: FcγRIIIa (Val158 variant) (from UniProt P08637)
- pKd: 7.00
